Like-named read-outs stand apart in the source and are kept apart here. Values belong to the binder of their own block, whether it stands above or below them. Bridges are numbered along the chain shown (N, C = ends). Where no end group is shown, it is not given here. [ ]: non-standard residue; d: D form. AllylGly = C=CC[C@H](N)C(=O)O; AEA = NCCOCC(=O)O; βAla = NCCC(=O)O
Assays:
IL23R_huFC [1] = target: T1, IL23R_huFC (human, UniProt Q5VWK5 24-353); assay: IL23-IL23R competitive ELISA, IC50 grade
T1 sequence (looked up): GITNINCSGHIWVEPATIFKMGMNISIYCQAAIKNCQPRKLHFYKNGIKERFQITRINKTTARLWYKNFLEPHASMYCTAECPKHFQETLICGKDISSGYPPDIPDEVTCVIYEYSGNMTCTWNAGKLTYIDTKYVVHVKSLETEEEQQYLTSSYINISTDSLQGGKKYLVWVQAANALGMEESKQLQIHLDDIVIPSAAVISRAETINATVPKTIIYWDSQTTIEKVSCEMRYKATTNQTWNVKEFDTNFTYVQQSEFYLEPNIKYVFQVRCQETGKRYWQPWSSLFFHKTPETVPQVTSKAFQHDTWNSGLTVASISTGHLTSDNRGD

Rat IL-23R_huFC [2] = target: T2, Rat IL-23R_huFC (rat; human, UniProt F1LX96 39-369); assay: rat IL-23R competitive ELISA
T2 sequence: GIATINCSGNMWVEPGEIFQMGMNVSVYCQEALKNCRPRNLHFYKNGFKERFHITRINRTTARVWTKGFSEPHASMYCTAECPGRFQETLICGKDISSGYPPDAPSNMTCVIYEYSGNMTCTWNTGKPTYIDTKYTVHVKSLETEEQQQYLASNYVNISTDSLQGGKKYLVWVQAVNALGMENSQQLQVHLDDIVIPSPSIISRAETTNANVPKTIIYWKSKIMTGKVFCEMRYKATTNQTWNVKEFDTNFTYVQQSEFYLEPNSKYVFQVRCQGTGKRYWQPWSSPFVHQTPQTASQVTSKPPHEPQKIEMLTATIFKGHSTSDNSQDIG

Rat IL-23R_huFC [3] = target: Rat IL-23R_huFC (rat); assay: rat ELISA vs IL-23
Rat IL-23R_huFC [4] = target: T3, Rat IL-23R_huFC (rat, UniProt F1LX96 39-369); assay: rat IL-23R competitive binding ELISA
T3 sequence: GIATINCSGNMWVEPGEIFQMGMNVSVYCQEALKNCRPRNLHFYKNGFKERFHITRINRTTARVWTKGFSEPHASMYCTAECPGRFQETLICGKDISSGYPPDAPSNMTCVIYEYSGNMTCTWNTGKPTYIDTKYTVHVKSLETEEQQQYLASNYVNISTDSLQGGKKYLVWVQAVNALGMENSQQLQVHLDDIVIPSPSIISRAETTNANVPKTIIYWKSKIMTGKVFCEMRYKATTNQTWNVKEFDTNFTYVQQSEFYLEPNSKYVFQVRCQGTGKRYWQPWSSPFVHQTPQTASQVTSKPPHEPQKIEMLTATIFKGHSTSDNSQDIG

IL-23R on DB cells [5] = target: T4, IL-23R on DB cells (human, UniProt Q5VWK5 24-629); assay: cell-based or functional assay
T4 sequence (looked up): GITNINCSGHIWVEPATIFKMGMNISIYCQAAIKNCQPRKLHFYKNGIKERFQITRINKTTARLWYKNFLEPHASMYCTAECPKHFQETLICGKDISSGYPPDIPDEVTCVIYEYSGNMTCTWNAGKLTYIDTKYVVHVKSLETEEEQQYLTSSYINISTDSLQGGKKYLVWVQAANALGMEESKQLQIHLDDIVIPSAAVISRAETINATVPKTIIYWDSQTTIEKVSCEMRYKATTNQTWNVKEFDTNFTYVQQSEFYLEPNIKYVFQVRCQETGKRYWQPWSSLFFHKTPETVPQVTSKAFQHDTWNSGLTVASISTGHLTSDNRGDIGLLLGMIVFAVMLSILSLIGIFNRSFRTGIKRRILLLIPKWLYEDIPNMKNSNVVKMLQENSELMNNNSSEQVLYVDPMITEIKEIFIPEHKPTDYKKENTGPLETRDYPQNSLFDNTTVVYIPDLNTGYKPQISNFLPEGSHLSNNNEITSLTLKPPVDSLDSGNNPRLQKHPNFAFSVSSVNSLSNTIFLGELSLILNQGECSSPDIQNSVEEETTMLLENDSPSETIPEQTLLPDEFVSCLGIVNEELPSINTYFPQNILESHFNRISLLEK

IL23R_huFC [6] = target: T5, IL23R_huFC (human, UniProt Q5VWK5 24-353); assay: human ELISA vs IL-23
T5 sequence (looked up): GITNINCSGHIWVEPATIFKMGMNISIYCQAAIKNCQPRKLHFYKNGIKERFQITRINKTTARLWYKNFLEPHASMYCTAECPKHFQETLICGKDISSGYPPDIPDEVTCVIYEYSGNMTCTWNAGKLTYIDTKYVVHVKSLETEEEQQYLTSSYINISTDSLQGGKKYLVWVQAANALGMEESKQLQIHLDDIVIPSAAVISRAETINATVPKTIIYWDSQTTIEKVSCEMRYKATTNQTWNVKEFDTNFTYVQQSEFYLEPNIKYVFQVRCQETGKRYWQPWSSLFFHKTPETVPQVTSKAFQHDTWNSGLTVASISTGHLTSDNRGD

Rat IL-23R_huFC [7] = target: T3, Rat IL-23R_huFC; assay: rat IL-23R competitive binding ELISA; remark: listed apart in the source
IL-23R on DB cells [8] = target: T4, IL-23R on DB cells; assay: cell-based or functional assay; remark: listed apart in the source
IL23R_huFC [9] = target: T6, IL23R_huFC (human, UniProt Q5VWK5 24-353); assay: IL23-IL23R competitive binding ELISA
T6 sequence (looked up): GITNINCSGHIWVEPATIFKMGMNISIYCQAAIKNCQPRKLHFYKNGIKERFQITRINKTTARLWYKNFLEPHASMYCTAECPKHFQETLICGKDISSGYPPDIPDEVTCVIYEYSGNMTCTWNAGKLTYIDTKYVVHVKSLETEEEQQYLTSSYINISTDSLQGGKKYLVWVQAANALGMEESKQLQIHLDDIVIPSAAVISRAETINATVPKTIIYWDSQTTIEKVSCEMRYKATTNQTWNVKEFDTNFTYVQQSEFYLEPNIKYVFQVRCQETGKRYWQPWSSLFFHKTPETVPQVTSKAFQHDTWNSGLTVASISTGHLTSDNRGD

[10] = target: T7, IL-23R on human cells (IL-23R-expressing DB cells; human NK cells) (human, UniProt Q5VWK5 24-629); assay: cell-based or functional assay
T7 sequence (looked up): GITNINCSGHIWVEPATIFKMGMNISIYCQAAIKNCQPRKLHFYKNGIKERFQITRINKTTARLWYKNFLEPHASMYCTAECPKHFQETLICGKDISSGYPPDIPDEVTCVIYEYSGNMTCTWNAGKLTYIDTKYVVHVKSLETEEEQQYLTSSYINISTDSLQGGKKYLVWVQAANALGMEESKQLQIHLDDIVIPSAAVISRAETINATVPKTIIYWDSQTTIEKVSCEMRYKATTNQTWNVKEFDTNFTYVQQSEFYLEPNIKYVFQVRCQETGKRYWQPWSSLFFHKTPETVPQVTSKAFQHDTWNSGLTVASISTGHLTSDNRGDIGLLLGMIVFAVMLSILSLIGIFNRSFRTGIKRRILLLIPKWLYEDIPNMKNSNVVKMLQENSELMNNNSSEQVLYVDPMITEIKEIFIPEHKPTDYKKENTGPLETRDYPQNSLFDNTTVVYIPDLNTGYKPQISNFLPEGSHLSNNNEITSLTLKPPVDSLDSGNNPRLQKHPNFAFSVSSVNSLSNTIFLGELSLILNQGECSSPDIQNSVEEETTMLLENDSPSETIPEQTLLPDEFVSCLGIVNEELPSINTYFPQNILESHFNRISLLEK

IL23R_huFC [11] = target: T5, IL23R_huFC; assay: human ELISA vs IL-23; remark: listed apart in the source
Rat IL-23R_huFC [12] = target: Rat IL-23R_huFC (rat); assay: rat ELISA vs IL-23; remark: listed apart in the source

Binder: H-FPTWEWYWCNRD-NH2 (also: oxidized dimer via intermolecular Cys9-Cys9 disulfide) [(Hy-FPTWEWYWCNRD-NH2)2, oxidized dimer through the cysteine]
- IC50 (IL23R_huFC [1]): 1000 to 10000 nM

Binder: CADWVXYWHTFGXK (as bracketed in name; cyclized via Cys and Pen) [Ac-CADWV-[(D)Pen]-YWHTFG-[AEA]-[(D)-Lys]-NH2]
- IC50 (Rat IL-23R_huFC [3]): 1000 to 10000 nM

B1: [Ac-[Pen]-QTWQ-[Pen]-[Phe(4-CONH2)]-[2-Nal]-[α-MeLys]-[Lys(Ac)]-NN-NH2]2DIG (peptide)
peptide: XQTWQXFXKKNN
modifications: Ac; Pen-Pen disulfide; Phe(4-CONH2); 2-Nal; α-MeLys; Lys(Ac); NH2; DIG linker joins the two subunits
- IC50 (Rat IL-23R_huFC [7]): 10 to 25 nM

B2: [Ac-[Pen]-QTWQ[Pen]-[Phe[4-(2-acetylaminoethoxy)]-[2-Nal]-K-[Lys(Ac)]-NN-NH2]2DIG (peptide)
peptide: XQTWQXFXKKNN
modifications: Ac; Pen-Pen disulfide; Phe[4-(2-acetylaminoethoxy)]; 2-Nal; Lys(Ac); NH2; DIG linker joins the two subunits
- IC50 (Rat IL-23R_huFC [7]): 25 to 100 nM

B3: [Ac-[Pen]-QTWQ-[Pen]-[Phe[4-(2-aminoethoxy)]-[2-Nal]-[α-Me-Leu]-QNN-NH2]2DIG (peptide)
peptide: XQTWQXFXLQNN
modifications: Ac; Pen-Pen disulfide; Phe[4-(2-aminoethoxy)]; 2-Nal; α-Me-Leu; NH2; DIG linker joins the two subunits
- pStat3 HTRF IC50 (IL-23R on DB cells [8]): 10 to 25 nM
- IC50 (IL23R_huFC [9]): 10 to 25 nM

B4: [Ac-[Pen]-QTWQ-[Pen]-[Phe(4-OMe)]-[2-Nal]-[α-MeLys]-[Lys(Ac)]-NN-NH2]2DIG (peptide)
peptide: XQTWQXFXKKNN
modifications: Ac; Pen-Pen disulfide; Phe(4-OMe); 2-Nal; α-MeLys; Lys(Ac); NH2; DIG linker joins the two subunits
- IC50 (Rat IL-23R_huFC [7]): 10 to 25 nM

B5: [Ac-[Pen]-QTWQ-[Pen]-[Phe[4-(2-aminoethoxy)]-[2-Nal]-[α-Me-Leu]-QNN-NH2]2PEG25 (peptide)
peptide: XQTWQXFXLQNN
modifications: Ac; Pen-Pen disulfide; Phe[4-(2-aminoethoxy)]; 2-Nal; α-Me-Leu; NH2; PEG25 linker joins the two subunits
- pStat3 HTRF IC50 (IL-23R on DB cells [8]): 10 to 25 nM
- IC50 (IL23R_huFC [9]): < 10 nM

B7: [Ac-[(D)Lys]-Cyclo-[[Abu]-QTWQC]-[Phe(4-OMe)]-[2-Nal]-[α-MeLeu]-ENG-NH2]2 DIG (peptide)
peptide: KXQTWQCFXLENG
modifications: not fully specified; as bracketed in name; thioether cyclo; DIG linker through (D)Lys
- pStat3 HTRF IC50 [10]: < 10 nM
- IC50 (IL23R_huFC [11]): < 10 nM
- IC50 (Rat IL-23R_huFC [12]): 25 to 100 nM

Other lines, results leading:

- IC50 (Rat IL-23R_huFC [2]): 2210 nM
Binder: Ac-CQTWQCYW[βAla]VFG[AEA][dK]-NH2 (disulfide 1-6 (inferred)) [Ac-CQTWQCYW-[βAla]-VFG-[AEA]-[(D)Lys]-NH2]

- IC50 (Rat IL-23R_huFC [4]): 27 nM
- pStat3 HTRF IC50 (IL-23R on DB cells [5]): 5 nM
Binder: CQTWQCYWLENG (not fully specified; Ac; α-MeLeu at 9; NH2) [Ac-CQTWQCYW-[α-MeLeu]-ENG-NH2]

- IC50 (IL23R_huFC [6]): ~30000 nM
Binder: [AllylGly]ADWV[AllylGly]YWHTFG (staple 1-6 (inferred)) [SEQ ID NO. 1001 peptide (drawing CHEM-US-00115)]

- IC50 (Rat IL-23R_huFC [7]): 10 to 25 nM
B6: [Ac-[Pen]-QTWQ[Pen]-[Phe[4-(2-acetylaminoethoxy)]-[2-Nal]-[α-MeVal]-KNN-NH2]2DIG (peptide)
peptide: XQTWQXFXVKNN
modifications: not fully specified; Ac; Pen-Pen disulfide; Phe[4-(2-acetylaminoethoxy)]; 2-Nal; α-MeVal; NH2; DIG linker joins the two subunits

— patent publication US20190300590A1 (PROTAGONIST THERAPEUTICS, published 2019)
